Read-outs that look alike come from different tables or passages of the source.
T1: TNFR2 ECD-Fc (human, UniProt P20333)
T1 construct: Fc region, C-terminal fusion partner; also called TNFR2 ECD-hFc; Ichor Bio ICH4022
T1 sequence (TNFR2 ECD-Fc fusion chain): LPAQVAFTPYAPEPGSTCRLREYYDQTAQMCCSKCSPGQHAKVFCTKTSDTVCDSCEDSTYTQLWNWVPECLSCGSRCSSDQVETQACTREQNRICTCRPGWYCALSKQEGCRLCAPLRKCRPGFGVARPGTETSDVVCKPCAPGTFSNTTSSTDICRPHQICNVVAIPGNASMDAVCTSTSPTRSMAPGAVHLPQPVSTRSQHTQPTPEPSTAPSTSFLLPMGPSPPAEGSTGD

B1: DcR3-hFc (Fc fusion)
chain: VAETPTYPWRDAETGERLVCAQCPPGTFVQRPCRRDSPTTCGPCPPRHYTQFWNYLERCRYCNVLCGEREEEARACHATHNRACRCRTGFFAHAGFCLEHASCPPGAGVIAPGTPSQNTQCQPCPPGTFSASSSSSEQCQPHRNCTALGLALNVPGSSSHDTLCTSCTGFPLSTRVPGAEECERAVIDFVAFQDISIKRLQRLLQALEAPEGWGPTPRAGRAALQLKLRRRLTELLGAQDGALLVRLLQALRVARMPGLERSVRERFLPVH
notes: also called Acro Bio TNB-H5255; not shown: The hIgG1 Fc at the C-terminus, and any linker, of the vendor reagent Acro Bio TNB-H5255
B2: recombinant human TL1A (Acro Bio TLA-H5244), plate bound (ligand)
chain: LKGQEFAPSHQQVYAPLRADGDKPRAHLTVVRQTPTQHFKNQFPALHWEHELGLAFTKNRMNYTNKFLLIPESGDYFIYSQVTFRGMTSECSEIRQAGRPNKPDSITVVITKVTDSYPEPTQLLMGTKSVCEVGSNWFQPIYLGAMFSLQEGDKLMVNVSDISLVDYTKEDKTFFGAFLL
notes: Bought protein; also called hTL1A; Tumor Necrosis Factor Ligand Superfamily Member 15
B3: recombinant human FASL (Acro Bio HAL-H5241) (ligand)
chain: PSPPPEKKELRKVAHLTGKSNSRSMPLEWEDTYGIVLLSGVKYKKGGLVINETGLYFVYSKVYFRGQSCNNLPLSHKVYMRNSKYPQDLVMMEGKMMSYCTTGQMWARSSYLGAVFNLTSADHLYVNVSELSLVNFEESQTFFGLYKL
notes: Bought protein; also called hFASL; FAS Ligand
B4: recombinant human LIGHT (Acro Bio LIT-H5242) (ligand)
chain: LIQERRSHEVNPAAHLTGANSSLTGSGGPLLWETQLGLAFLRGLSYHDGALVVTKAGYYYIYSKVQLGGVGCPLGLASTITHGLYKRTPRYPEELELLVSQQSPCGRATSSSRVWWDSSFLGGVVHLEAGEKVVVRVLDERLVRLRDGTRSYFGAFMV
notes: Bought protein; also called hLIGHT; Tumor Necrosis Factor Ligand Superfamily Member 14

Tests used:
[1] = target: B4; assay: ELISA: plate coated with recombinant human LIGHT (2 µg/mL), Fc-tagged protein titrated 3-fold from 10 nM, anti-human Fc HRP, OD 450 nm background subtracted
Protocol: (§1) Briefly, Maxisorp 384 well plates (Thermo Nunc Cat #P6366-1CS) were coated with 25 μL of 2 μg/mL of recombinant human TNFSF ligands: TNFα (Acro Bio TNA-H5228), TL1A (Acro Bio TLA-H5244), FASL (Acro Bio HAL-H5241), or LIGHT (Acro Bio LIT-H5242) in PBS or were coated with PBS alone overnight at 4° C. The plates were washed 3 times with 0.1% PBS-T and incubated with SuperBlock blocking buffer (Thermo Fisher 37515) for 1 hour at room temperature with shaking at 400 RPM. […] Plates were incubated for 1 hour at room temperature with shaking at 400 RPM. ELISA plates were washed 3 times with 0.1% PBS-T and incubated with an anti-human Fc HRP conjugated secondary antibody (ThermoFisher Scientific Cat #H10307) 1:2000 in 0.1% PBS-T for 1 hour at room temperature with shaking at 400 RPM. The plates were washed 3 times with 0.1% PBS-T and incubated with 20 μL of TMB (ThermoFisher Scientific Cat #34028) per well. The reaction was stopped at 5 minutes by adding 20 μL of Stop Solution (BioFX LSTP-1000-01). […] Blank subtracted ODs were calculated by subtracting the ODs from the blank plate from the readings from each of the ligand plates and data was plotted using PRISM (version 10.0.2).

[2] = target: B3; assay: ELISA: plate coated with recombinant human FASL (2 µg/mL), Fc-tagged protein titrated 3-fold from 10 nM, anti-human Fc HRP, OD 450 nm background subtracted
Protocol: as §1

[3] = target: B2; assay: ELISA: plate coated with recombinant human TL1A (2 µg/mL), Fc-tagged protein titrated 3-fold from 10 nM, anti-human Fc HRP, OD 450 nm background subtracted
Protocol: as §1

[4] = target: B2; assay: as above; remark: listed apart in the source
Protocol: as §1

[5] = target: B2; assay: as above; remark: listed apart in the source
Protocol: as §1

[6] = target: B4; assay: ELISA: plate coated with recombinant human LIGHT (2 µg/mL), Fc-tagged protein titrated 3-fold from 10 nM, anti-human Fc HRP, OD 450 nm background subtracted; remark: listed apart in the source
Protocol: as §1

[7] = target: B3; assay: ELISA: plate coated with recombinant human FASL (2 µg/mL), Fc-tagged protein titrated 3-fold from 10 nM, anti-human Fc HRP, OD 450 nm background subtracted; remark: listed apart in the source
Protocol: as §1

[8] = target: B2; assay: ELISA: plate coated with recombinant human TL1A (2 µg/mL), Fc-tagged protein titrated 3-fold from 10 nM, anti-human Fc HRP, OD 450 nm background subtracted; remark: listed apart in the source
Protocol: as §1

[9] = target: B3; assay: ELISA: plate coated with recombinant human FASL (2 µg/mL), Fc-tagged protein titrated 3-fold from 10 nM, anti-human Fc HRP, OD 450 nm background subtracted; remark: listed apart in the source
Protocol: as §1

[10] = target: B3; assay: as above; remark: listed apart in the source
Protocol: as §1

[11] = target: B4; assay: ELISA: plate coated with recombinant human LIGHT (2 µg/mL), Fc-tagged protein titrated 3-fold from 10 nM, anti-human Fc HRP, OD 450 nm background subtracted; remark: listed apart in the source
Protocol: as §1

[12] = target: B4; assay: as above; remark: listed apart in the source
Protocol: as §1

[13] = target: B2; assay: ELISA: plate coated with recombinant human TL1A (2 µg/mL), Fc-tagged protein titrated 3-fold from 10 nM, anti-human Fc HRP, OD 450 nm background subtracted; remark: listed apart in the source
Protocol: as §1

[14] = target: B4; assay: ELISA: plate coated with recombinant human LIGHT (2 µg/mL), Fc-tagged protein titrated 3-fold from 10 nM, anti-human Fc HRP, OD 450 nm background subtracted; remark: listed apart in the source
Protocol: as §1

[15] = target: B3; assay: ELISA: plate coated with recombinant human FASL (2 µg/mL), Fc-tagged protein titrated 3-fold from 10 nM, anti-human Fc HRP, OD 450 nm background subtracted; remark: listed apart in the source
Protocol: as §1

TNFR2 ECD-Fc [16] = target: T1, TNFR2 ECD-Fc; assay: ELISA: plate coated with recombinant human TL1A (2 µg/mL), Fc-tagged protein titrated 3-fold from 10 nM, anti-human Fc HRP, OD 450 nm background subtracted
Protocol: as §1

TNFR2 ECD-Fc [17] = target: T1, TNFR2 ECD-Fc; assay: ELISA: plate coated with recombinant human FASL (2 µg/mL), Fc-tagged protein titrated 3-fold from 10 nM, anti-human Fc HRP, OD 450 nm background subtracted
Protocol: as §1

TNFR2 ECD-Fc [18] = target: T1, TNFR2 ECD-Fc; assay: ELISA: plate coated with recombinant human LIGHT (2 µg/mL), Fc-tagged protein titrated 3-fold from 10 nM, anti-human Fc HRP, OD 450 nm background subtracted
Protocol: as §1

Binder: B1
EC50 (read off the curve) [1]: ~200 pM
EC50 (read off the curve) [2]: ~100 pM
EC50 (read off the curve) [3]: ~100 pM
EC50 (read off the curve) [4]: ~100 pM
EC50 (read off the curve) [5]: ~100 pM
EC50 (read off the curve) [6]: ~200 pM
EC50 (read off the curve) [7]: ~100 pM
EC50 (read off the curve) [8]: ~100 pM
EC50 (read off the curve) [9]: ~100 pM
EC50 (read off the curve) [10]: ~100 pM
EC50 (read off the curve) [11]: ~200 pM
EC50 (read off the curve) [12]: ~200 pM
EC50 (read off the curve) [13]: ~100 pM
EC50 (read off the curve) [14]: ~200 pM
EC50 (read off the curve) [15]: ~100 pM

Binder: B2
binding result (TNFR2 ECD-Fc [16]): no binding (tested: 10 nM (LOG[Dose] 1))

Binder: B3
binding result (TNFR2 ECD-Fc [17]): no binding (tested: 10 nM (LOG[Dose] 1))

Binder: B4
binding result (TNFR2 ECD-Fc [18]): no binding (tested: 10 nM (LOG[Dose] 1))

Source: patent publication US20250375499A1 (FLAGSHIP PIONEERING INNOVATIONS VII, published 2025)
